Results taken from the DeepSol protein solubility set.

Test: soluble on expression in E. coli; label from the status in PepcDB or PDB records

Sequence | soluble on expression in E. coli
MSLIISISNLSPKSNRSQTKDSQISKWSYFSDCILRSTGFPAEWIEKLCFHKTTTMFDLCYRTEQSLNELVERLKTLEQTCHIPSNARQDWQRIRKLVGKRKKVTDEFIHLMEQKGFDQSLTQEIESYERKRRLQEKNWTKARESFEAELAEKQLFLQEIYKNPRLQEAIFQQSPSMYKNAVVPYVHSSLQKRNTNIKRIERQLISYLQRLCTKNETTSFFGPIQYGVLTSEQQDIEYNFNQKETERRAFMPYWSIKVLAAQMKECDVFFPYLNVKLSYQYTKTGDSIHSPILEKMVKFPKPYADIIKHLTYENQSIEQLAKKLSQPVAWLAKKLRLLEKKRLILIEIPLSITEPDSLNELRSWILKIKDVEHPDLSLWQERLEWLWKVKQAYPYMTLGQKQELFHKLESTFTEWTGEQPRRLGGEIYADRNLLYEECHGPLNNIKIGGSIKHVLKQDVPKWLSICAKHGEQRRKQEQALAQEIFKMMYPNEDSVPFLKFVHDLSNHPDVHTWEKRWQSIKTEIEEAITHEVASNPKSVVHLSLDYQDFDRDMAWLTSPDLMIAKKDDDSYQVILGEIHDTIMVWGWALQFHPEKDRVNEQLVKKIQKSTQHLRMLNMLSSKRFKIVPFEYPGTTIQMNSFSNSPNEKIPLSQLKVTYTKEGLALTLPDHEEVFYTYNGELNTMVHSFFSLPRAVSFSIRTGESTPRLMLGDLVVQRAKWHISKQDVWSKKHTGSSIELFYEAYRFHLKESLPKEGFAKLPGQPKPVYVNFTSYFLIEMLEGLWPDGENCTFSEMLPNLSELWLSKEDQKTHTAEIRLSYFVERSEGHHHHHH | soluble
MSLRFVDDEGHYNVSFFHVNDVHAHLDQFASSGTSCDDPEKGCYGGYARIKTKVTELREQYPDNLWLNAGDEFQGTLFYTYYGGEKIAETLNELKFDAMTLGNHEWDGGDEALGQFLLNLTFPIVSCNVKSEVESLNETIKNYHIFEEHEIAVIGATTTTTPGISSVGNTTTFLDPVAEVQKAVWQIRNETEVNRIILLSHLGYEEDQDLAAKTEGISLIIGGHSHTLLGDMEDAKGDYPTMVEDLNGHEVFIVTAYRWGEYLGAIDLTFDDDGHALAYHGAPIHMDNSTSLDEELDTKIQGWAEAFADFAAEVLGETDAVLVQETCQEGDCLLGQVMADAMYEYRYNQTEGTDDEPALALINSGGVRAEINEGPITRGEVLTAFPFGNAIVELEFSGADLRKILEGAVSYVNQFNGDEITSWFQVSRGVRIEFNPDNEPGDRLVNVTIQGEAIDDERDYRVVTLDFLAGGGDSIFVATDDFITLDTQDEVLTQYIVARTPLSPELEERVVENDGEGHHHHHH | soluble
MSLNEIDKSVDIGFLRILDVIKKVKTPKGGIEVLRTLIDFTPKIENALNLATKSHKGQYRKSGEPYIVHPICVASVVAFCGGDEAMVCAALLHDVVEDTPCEIETIEREFGQDVANLVDALTKITEIRKEELGVSSQDPRMVVSALTFRKILISAIQDPRALVVKISDRLHNMLTLDALPHDKQVRISKETLAVYAPIASRLGMSSIKNELEDKSFYYIYPEEYKNIKEYLHKNKQSLLLKLNAFASKLEKKLFDSGFSHSDFKLVTRVKRPYSIYLKMQRKGAVNIDEILDLLAIRILLKNPIDCYKVLGIIHLNFKPIVSRFKDYIALPKENGYKTIHTTIFDESSVYEVQIRTFDMHMGAEYGNSAHWKYKAGGVDHEEHHEGMRWLQNFKYHDSDLKNDPKEFYELAKNDLYREDIVVFSPHGDTYTLPVGAIALDFAYMVHSDLGDKATDAYINSKKALLNQELRSGDVVKIIKGDKVIPRFIWMDQLKTSKAKNHLRIQRRNRLKEIDTKSMINILATFFGRSVFEDADLKDYKNFEEKLTDCGVETTLTEAMKSFENLAKLTEEIENKVFSLKEDAILEYQEMSLWTRGLRYLGFKTNVLNFLTPNRQWQCKELEHFSVCSSNALEIKQVLLNDCCYPKYGDEIIAIVTDLKDPKAIAHHKFCKKAIAEVDAKVPMVYIEWHKRDRTIYKMMFYLGEKKSVLASLLTFLNRNECNIVGVSYLGYKDKYSSHCEVSFEIATDKADWMRALINRKYQDRIVELSSLDDAYELQEGHHHHHH | soluble
MGSDKIHHHHHHMKIEGLFNKYYNSFTANDKYICECILNHKEDCIKLSIDEFADKYHISTSALSRFAQKLQLPGYSELRVIIRLNETEVEYKNQSKHQLMDCYNKVIDDIEKKDCSIMFERMKKANRIIVFGEGYSQERVAKEMKRIFLPTGKIIYDVYGYDMIQALNHFIKTDDMIFFISLNGDASTIIDFAKEMRMKGIYMVSITKMISNPLARLCDENLYIQSISISVDKQLDYDVTTPYFILIELLYIKYKMYLESEHIPRK | not soluble
MSLNESEEKNSNSTYSFFFKNLSVTGFYEENCLFMTVKELFDNSIDALCNNKGDENIDEEGQGTQEKKIEIEIKEYGINSSFYEIICRDNGEGIEVKDLEKISEMFLTSKEKCITSGKFGIGLKTILLYSFKTAYGFLHIKIKVKKNKIWDFILVLDKNLNHTFVQNFKEYIDDKWEWTIEISVILKINNNYISDKKIHSYIKLFLLWKKNITVKYIHNPNGEQSIYTYSSHSDTSEENILSMLANNSINMIFKKDFLTSYNYDVNMYVNVRKSEKIIPYEHGHNIGFLFLIRYVNSMPLLRTSSSDCSITVDFRNFLKYYGPQFGIELPTIESRDEMILEELALPSCFDDLNKVANIFPVKRSEKSTWNIMIIGIDVRGRDISFVSLRKNCIKEGEYLSSLIKKCSINLYNNIKRELPQEFENLSDYQLRQALNIYGVQLASSLSKIILKGHEEFKNKIFFLLNEKKKIKNNSTCEKEEYNNKFTSYDENILTRELYSHIKEKIMLNEKTYENPKAKIQLTGDSNKSYYKNEGHHHHHH | not soluble
MTLSEEVASLQRAAHDLMYLGMDGSPIYSDDLSRRNNEVYRLTTTLYNSGVQGSTVEEQASVCLALLMGYNASFIDHGEKREHVQKILDRCWDILDTLPASLLKLRLLTACYGEVFDEPLADEARAIIASWDSVSLTTEQQEAINEFQTVVDNPYPWEYVEE | not soluble
MSRQAKDDFLRHYTVSDPRTHPKGYTEYKVTAQFISKKDPEDVKEVVVWKRYSDFRKLHGDLAYTHRNLFRRLEEFPAFPRAQVFGRFEASVIEERRKGAEDLLRFTVHIPALNNSPQLKEFFRGGEVTRPLEVSRDLHILPPPLIPTPPPDDPRLSQLLPAERRGLEELEVPVDPPPSSPAQEALDLLFNCESTEEASGSPARGPLTEAELALFDPFSKEEGAAPSPTHVAELATMEVESARLDQEPWEPGGQEEEEDGEGGPTPAYLSQATELITQALRDEKAGAYAAALQGYRDGVHVLLQGVPSDPLPARQEGVKKKAAEYLKRAEEILRLHLSQLPP | soluble
MVYVSNKYLTMSEMKVNAQYILNYLSSNGWTKQAICGMLGNMQSESTINPGLWQNLDEGNTSLGFGLVQWTPASNYINWANSQGLPYKNMDSELKRIIWEVNNNAQWINLRDMTFKEYIKSTKTPRELAMIFLASYERPANPNQPERGDQAEYWYKNLSGGGGGGLQLAQFPMDIINISQGENGSFSHKGTLCIDFVGKTEKYPYYAPCDCTCVWRGDASAYLAWTSDKEVMCADGSVRYITWVNVHESPLPFDVGKKLKKGDLMGHTGIGGNVTGDHWHFNVIDGKEYQGWTKKPDSCLAGTELHIYDVFAVNNVEIINGNGYDWKTSDWQDG | soluble
MGSDKIHHHHHHMQSLSSHYHQLLGLPSNWEVENVNLSMSSRQVEIRLAFTGKQGECPICGQSCLIYDHAAEQRWRHLDTMQFETILVARLPRCQCKEHGVKTVQAPWAARHSRFTLLFESFAVELLLHCANIKAASRLLRLNWHTVNQIMRRAVQRGLVRRKTETVEYLGIDEKSFKAGQHDVTTLTDLGERRVLEVVEHRTTEATKELLASLNDSQQAGVKAVSVDMWKPFIHAVQELLPKADLVHDRFHISKYLNEAVDLVRRKECRQLDKAGDKRLIGSTYVWLRNPENMGEQQQAELGKLMDAEFRTGKAWSLKNMFRAFWQLGCADAGTFFFEYWSKRIDEVGLVPLTKVKELLQRHFGNVLTWFKHPITNAVSEGLNSKIQIVKASARGFHRFESYRIRILFYCGKLNMAIGS | not soluble
MTKAETSIGVFYVSEYGYSDRLAQAIINGITKTGVGVDVVDLGAAVDLQELRELVGRCTGLVIGMSPAASAASIQGALSTILGSVNEKQAVGIFETGGGDDEPIDPLLSKFRNLGLTTAFPAIRIKQTPTENTYKLCEEAGTDLGQWVTRDRSIKAMKSLGLEHHHHHH | soluble
MFDGIGFMELLLIGVLGLIVLGPERLPVAVRSVTSWVRAMKRMANSVKEELEQELKIEQLHADLKKAESKGLSNLSPELQESIEQLKQAAQSVNRPYQVQDTPSAQDNQIHNPASQTVSTEASSTSASSAPKSESIQGEDPRSNTKANGLEHHHHHH | soluble
MRKSMISFLEKKAKNEKITMVSAYDYHSARILDNSDIDIILVGDSLAMTVLGMQDTLSVTMDEMLIFTKAVSRGAKKSFVLADMPFMSYQSSDRDAILNASRFIKESHANGVKVEGGIEIASKIKLISQSGIPVVAHLGLTPQAVNMLGGYRVQGKDLQSAQKIIDDAKAVQDAGACMLVLECVPVKLAQKISSILEIPTIGIGSGKYCDGQVLVYHDLLGLNKDFKAKFVKHFDKIDPQVGVEKYRDEVKSGIFPSQEHSFDYLDDELLDKLY | not soluble
MRASPTSPPEQVVVDASAMVDLLARTSDRCSAVRARLARTAMHAPAHFDAEVLSALGRMQRAGALTVAYVDAALEELRQVPVTRHGLSSLLAGAWSRRDTLRLTDALYVELAETAGLVLLTTDERLARAWPSAHAIG | soluble
MNTRIKPVRSFLFVPGNKESMLDKAAQAGADALILDLEDSVPSPEKTAARELVAKKIPELIAQNQRIWVRINRTAHIYDLDDILAVAPAGIEGIYISKPGGPEDVYMASCMIAEAEARANLPLGSIGLIPLLETARSMQLCYDIAQMPRVAGIVGATARNADMGRALKFVWTAEGRETEYLKSRVVMAARAAGKQAIGGLWQQIKDLDGLAKSSAFDRQLGMSGELVLHPMQVETINRTYTPTAEDVAYYQGMIEALDAAQAQGRASVMYEGEHIDIAHVKTAHEVIALAQSFGNLEHHHHHH | soluble
SLGALGVIAFRRGYYYYVGSANSGVHRVKRHFSIKKKKRWHIDYISAKMEVVGAILSKEPECGLAQRFESFERIRGFGCSDCDCESHLFYSPTLNLEFLST | soluble
KQLEKDLLASAETLQRERHQIANALESEIKTELCDLYMDKADFKVVFTKGKFNRDGNEQVEFYISTNPGEGFKPLVKVASGGELSRLMLAIKSAFARKEDKTSIVFDEVDTGVSGRVAQAIAQKIHKIGSYGQVLAISHLPQVIAIADYQFFISKESDNETTVSRVRLLTPEERVEEIAKMLAGDNLTDAALSQARALLKVDEPV | not soluble
MAHHHHHHMRVFVLVAVRSGDGGVATYPPSVWHLQQCVRARSASCCHATSGGYLWTRDALFRALRRTHVDGAPASVLENAGASQRAKAAAPPCFYFFSALLDVGNNEEDVDLVALLLMELCVAWPNAIAAHMEVCRVCRGELSPAHASSPLAATLGEGETDEPSWQLEHFTREEALLVLLSDEIEATAATQDDFLTRWGVHNAWDHHRALQGRSWWVSGGIVAVLPSEAATRLVEPFLMLELSRMENGCPQLSRHPASCRDSSQTLEEALTHAILERELSHSVRAYLRNEVEGRIESRRLHRMTTVVPPAMALFLRGAPSSVLHECLLYHTVDCPLFPVEGGGCDAAQSSTDRATGLVAPAASPTAFLRPVKSGLSSTDLLERQRLVARDETSRLTELFCEYDLLLSGDGYVRVPLAPVSRYVFTQLLCQSELPSALMLALMRRHSDVTRRAGDMGHRIDPAAVSSRLPPPTEEEVVLGIKVTWAVTRWTAALQRGAAAAPPVGLPMWNEEQSLRKDKLCGWIRERMRKAKREAAELYSLEDAADTRATGREEDGVASTVSALPVASGDTADPLRRCRGAALEQLERRLFAPFPSSYRGSSTEWLGQALRDVAREQRHAASNMAQRDDVRASYAGPAPAARRAASPNVLDNSSSASDSDGTSDDGSEGAGGVGTPTRQETESLLAQLTELEVVLQNELASRTAIPLACGGDSRTTDSRLGVGDAVTGDQEMDVTSWLTAADMQQVTRNELFLHHVQLLESEMEQDQ | not soluble
